± gives the half width of the 95% confidence interval.
Columns and labels:
[1] = folding stability dG unfold from trypsin proteolysis; higher = more stable
Procedure, shortened: (§1)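 K50 was inferred by Bayesian fitting of sequencing counts obtained after protease digestion of designed mini-proteins. Unfolding free energy was derived by comparison with a sequence-predicted unfolded-state K50 and a shared folded-state K50, for each protease or both combined. The mini-proteins were under 80 residues, had no cysteine, were carried in a PA-tagged cDNA display construct, and were kept only if AlphaFold2 dimer inter-PAE exceeded 15.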

[2] = folding stability dG unfold from chymotrypsin proteolysis; higher = more stable
Procedure, shortened: as §1

[3] = folding stability dG unfold (combined trypsin and chymotrypsin); higher = more stable
Procedure, shortened: as §1

Sequence | folding stability dG unfold [1] [kcal/mol] | folding stability dG unfold [2] [kcal/mol] | folding stability dG unfold [3] [kcal/mol]
SKKKVTININITPGDPEQMEENVRWAIKEAAENDPDKEVTITIHFPPGHPEWMRWIKELFTKKGIPITIHSA [r9_1202_TrROS] | 2.88 ± 0.042 | 3.3 ± 0.037 | 3.16 ± 0.059
SAGGSAMKKVTVTVKFPDGTTYTFDMDTESEEEFEKKVREEALKRFPDIPLEDVEVTEVVVTPELLSAGGSA [r15_220_JUSTAS] | 2.3 ± 0.16 | 2.38 ± 0.039 | 2.33 ± 0.12
SAGGSPVYKVEIRMTIVDKNGTVKSIVNLELTFKTEEEIEKFLESIPKETVVEIEIEKRTVEPPEKLSAGGS [r16_677_JUSTAS] | 2.12 ± 0.055 | 0.699 ± 0.068 | 1.41 ± 0.11
SAGGSAGGSAGMPPPVVVEPKRTSVVPESGLVIIPVTVFNPANGKATLTTYLYDPATGKLVLSAGGSAGGSA [r18_228_JUSTAS] | 0.734 ± 0.17 | 2.17 ± 0.058 | 1.72 ± 0.12
SAGGSAGGKKIRIRIPLPDGTWVEVEVYFSEDGIYSFYIPPTGKLVLIDVGENGIKITIIDLPPSAGGSAGG [r6_58_TrMRF] | 4.1 ± 0.32 | 4.47 ± 0.27 | 4.38 ± 0.43
SAGGSADENGKPKPTLIIKIEVEHPNGQKFPLSFIFKSPEEAEEIANELANNGYEVNIRLMPLDQISAGGSA [r15_906_TrROS] | 1.07 ± 0.024 | 1.71 ± 0.044 | 1.55 ± 0.059
SAGGKIEEVARELAKELNAVSIDFRTEGDVPSVEIRFRIPGSPLWLRVTITRDPDGNISVSIEPDPRSAGGS [r16_433_TrMRF] | 2.94 ± 0.054 | 4.16 ± 0.074 | 3.75 ± 0.09
MPARVEARRIPDEPRLEVVVDFPGYRVVVRVDEGGRVEVEVVWEENVGPEERAAAEEAAEAFAREVAEALGS [r1_468_TrMRF] | 0.401 ± 0.19 | 1.05 ± 0.039 | 0.839 ± 0.099
SASNKPRTIEVPIMIPPDDLKEHSPEEFIDWIANELGLPPGKDIKIDVDIEPFEHDGRPYYIIPARIQVSAG [r14_334_TrROS] | -0.362 ± 0.2 | -0.294 ± 0.32 | -0.231 ± 0.22
SAGGSAGGMTVTTTSSFDPTSPTANTLTTTYVSPEELKRPEIQALPDLPGKTLEFPTTTPVPPPSAGGSAGG [r6_768_JUSTAS] | 0.679 ± 0.031 | 0.0452 ± 0.048 | 0.431 ± 0.085
SAGGSAGGSAGGMPIPIIVIPTPPNGNFTPEQIKEVAEKLNDPVVLTEESDNSRVILVGSAGGSAGGSAGGS [r10_642_TrMRF] | 0.928 ± 0.029 | -0.135 ± 0.08 | 0.519 ± 0.16
SAGGSAGGPSPNQPERQQVQVEAKIRFPDPNGKEWTIEITAYGSVGDARDAARSLAREIKNGKISAGGSAGG [r6_944_TrROS] | -0.494 ± 0.17 | -0.782 ± 0.49 | -0.484 ± 0.16
SMKPGDKLLIRIRLPPVKVEREYFDKDGKLVKKETKEVKEVELVIELSPEELEKLRELLKELGFEVEILPSA [r9_167_TrROS_Hall] | 2.83 ± 0.16 | 2.4 ± 0.055 | 2.5 ± 0.16
SAGGSAGGSAGKKIKVKIEVVYTDEDGNKHKVEMEKEIELKPGDKITLPPEAITRVEILPSAGGSAGGSAGG [r11_664_TrROS_Hall] | 0.832 ± 0.17 | 1.95 ± 0.12 | 1.57 ± 0.19
SKPILKIKINIPVLKDKNGKEIIPSPNDVLAALEKLGIPVDKAEITKIGKNTIPILILVDLVDGKAYVKDSA [r9_225_TrMRF] | 1.51 ± 0.059 | 0.539 ± 0.054 | 1.13 ± 0.1
SAGGGISIVSGDPEITPEKAEAIAAELAAILEEKGFTPKDAELARLPGGRILVTITVDDGKPIVFSLSAGGS [r8_485_TrMRF] | 1.77 ± 0.041 | 1.15 ± 0.019 | 1.49 ± 0.028
SMVIEPKPDGTVTVTLPSSLPDLPREEVEAIVREALPPGASLGDSITVSRDPETGEVTVTAPVKFPPELASA [r9_1011_JUSTAS] | 1.55 ± 0.076 | 0.544 ± 0.025 | 1.03 ± 0.084
SAGGSAGGSKEEIRKRIAERLRELIPDAKITSIEFDEKTKKITITVDSPEVREALEKLPGIKPSAGGSAGGS [r12_623_TrROS_Hall] | 1.49 ± 0.037 | 1.63 ± 0.088 | 1.53 ± 0.11
SGPGEEEVAKRAAAEAAPTPDVREVTEEVEIVVPGTGEKVVVPVTALRLPDGTIVPLPEEEIRAIAEKLLSA [r9_1056_JUSTAS] | 0.341 ± 0.098 | 1.07 ± 0.058 | 0.771 ± 0.13
SAGGSAGGSAGGSSSSLTPIGSSEKLEKLPDSSLRLVTTTTYRDPVTGETSTTTTVTLTDSAGGSAGGSAGG [r7_546_JUSTAS] | -0.46 ± 0.091 | 0.861 ± 0.045 | 0.487 ± 0.052
SGEPVIVKITFPDGTVLEIEFEGTPEEVKEAVEEEIKEYAKKHGLKPGEFKVEVIKAGDKTKETYTIKVESA [r9_1193_TrMRF] | 1.5 ± 0.098 | 2.03 ± 0.071 | 1.87 ± 0.15

Sequence | folding stability dG unfold [1] [kcal/mol] | folding stability dG unfold [2] [kcal/mol] | folding stability dG unfold [3] [kcal/mol]
SAGGLSGEAKLVEAEFEPETGTVRVFAEAGDELLTFEFKGTPFLPPIPASISPESLEKDEPVIRVSGSAGGS [r16_809_TrMRF] | 0.597 ± 0.059 | 0.143 ± 0.14 | 0.422 ± 0.079
MDVKIEPYRDPETGELYYKAVVKFKDGKEKLIEVKVPPNGKPIAKIYDPNGKLLAEKEFDSIEEALKEALAS [r1_478_TrMRF] | 3.3 ± 0.35 | 4.24 ± 0.16 | 3.91 ± 0.37
SAGGSATAEELADEIANYMADRHGMEVKKIEITDVDNDRVVFRAEVEMPNPNGKKHTHPFTIEIPVSAGGSA [r15_276_TrROS] | -0.0958 ± 0.17 | 0.303 ± 0.31 | 0.226 ± 0.29
SAGGSAGGSAGMVTRRMTPEEAEKFIADLPSDWSVEEISPLPENDIVEIKIKVEPPFKLQSAGGSAGGSAGG [r17_98_JUSTAS] | -0.199 ± 0.09 | 1.76 ± 0.035 | 1.28 ± 0.097
SAGFEARVLEVVDLGDRRVALFELRDPEEGRYLLAVAVYDPETGLARVELWDPTDGRLVATPVVPVLPLSAG [r5_440_TrMRF] | 1.72 ± 0.027 | 2.36 ± 0.047 | 2.12 ± 0.066
SAGKYIMHPIKAGAEIKITIPPEGYRIKIGMYYPNGGKMEEHEVPIKPGKTLEFKIPDPNFFVMIEPEPSAG [r5_797_TrROS] | 0.984 ± 0.1 | 1.57 ± 0.25 | 1.3 ± 0.26
SAGGSAGGSMPPVVLEVKDPESGKVTTLFFFPPTGEALVVPPDGSVFYEPFTSLDELVERLAGSAGGSAGGS [r12_511_TrMRF] | 1.4 ± 0.055 | 1.71 ± 0.051 | 1.57 ± 0.091
SAGGSAGGYWKVEIKNGMTFSIPGMTLDEAKNHARWHGFPMPIDKIEIEPVKPPPPPPKDPDDQSAGGSAGG [r6_688_TrROS] | 2.27 ± 0.14 | 2.95 ± 0.22 | 2.75 ± 0.35
SAGGSAGGSAMKTIPVKTKEEAEKLAEELKASGYGEVKKTKSGNIIVKAPDGIDVKIVVPEKSAGGSAGGSA [r18_126_JUSTAS] | 0.098 ± 0.068 | 0.712 ± 0.072 | 0.574 ± 0.19
SAPQIVEVKEYDPVSKTYTILAETPEGPLTVPVPAGGDTTVEEAIEQVKEYFEKTLPPGVELEIEKILLSAG [r14_422_JUSTAS] | 0.355 ± 0.08 | 0.271 ± 0.14 | 0.418 ± 0.093
SAGGSAGGSMSPSESVTLTVVVEEITPGTPKVLLPEEVKEKYPNFEVQVKVEGKPATVTITRPSAGGSAGGS [r12_900_JUSTAS] | 0.321 ± 0.021 | 0.444 ± 0.017 | 0.385 ± 0.077
SMLEKIEKAIESGNDGILVPLKLTPEEFKKVRAYLEELGFTLLSEEELAVGPVPVYELTFKVNTKTGEAASA [r9_498_JUSTAS] | 1.88 ± 0.066 | 2.44 ± 0.1 | 2.17 ± 0.13
DYKIKIPVARFPDGYWYIRAEIEDPDGETHEYEYPIPMPPGDTFDIDLPEDEPYKIKKIWIYHNGKPQPITS [r1_70_TrROS] | 0.922 ± 0.11 | 1.36 ± 0.15 | 1.16 ± 0.16
SAGGSAGGSAGSSSISRETFDPETGLRYVYDPETDTITVIDLSNNKVVKTTPVGPEELERSAGGSAGGSAGG [r17_271_JUSTAS] | 0.244 ± 0.068 | 1.95 ± 0.022 | 1.55 ± 0.07
SMIKVGFNVTGLPEEAEAKAEELARELAEETGARVAGVELLEAVPHPDGGPETFNVLVTLEVPNPEAIEKSA [r9_302_TrMRF] | 0.542 ± 0.045 | 2.21 ± 0.051 | 1.72 ± 0.093
SAGGEPVKFIPPGWKITLTTPDGRPLTFTLPANATPEDFKSLELPGDHELEFVEFLPDGTILVRSPKSAGGS [r16_103_TrMRF] | 0.948 ± 0.088 | 1.2 ± 0.18 | 1.12 ± 0.11
SAGMVRIERDGDELLIEFEFPEDEPEAVRALIEAIESLGLEVVEAEIEAEPGEGDLRRVRLRFKIKPLESAG [r5_739_TrMRF] | 3.95 ± 0.22 | 4.58 ± 0.083 | 4.39 ± 0.15
SAGGSYTVEELPPGGILRITFTVPKSRPAEVPLELKAPDGTPVDVESYSITPVGDTNVITYTIKVPLSAGGS [r16_499_JUSTAS] | 1.57 ± 0.049 | 1.81 ± 0.15 | 1.85 ± 0.11
SAGGGMEIRLTIYRVDPETGVETSVEKEVTLEEAKEIVKEIPEEGEYTVRVTRPDRPEDVSPEELKLLSAGG [r13_254_JUSTAS] | 0.246 ± 0.11 | -0.0215 ± 0.16 | 0.192 ± 0.073
SNKIDKRIVSVTFYESLPNGSVKVNNLVFISTSDGKVRLVNAGEITIPLGDKTLSINIGEASSNVKLGKISA [r9_1113_TrMRF] | 1.01 ± 0.034 | 1.52 ± 0.032 | 1.37 ± 0.041
SVPYGVTDVTFEPEKNTATVTAPRPDPSAPVAVGDKKGESVSVTSEVDTAAGTLTVTVPTTAPGNVTVDVPS [r1_138_JUSTAS] | 0.57 ± 0.041 | -0.934 ± 0.54 | 0.133 ± 0.12
